This note sets out measurements from patent publication US20190153061A1.

The chains are these.
B1: BCMA-9 CAR (139108) (protein)
chain: QVQLVESGGGLVKPGGSLRLSCAASGFTFSDYYMSWIRQAPGKGLEWVSYISSSGSTIYYADSVKGRFTISRDNAKNSLYLQMNSLRAEDTAVYYCARESGDGMDVWGQGTTVTVSSASGGGGSGGRASGGGGSDIQMTQSPSSLSASVGDRVTITCRASQSISSYLNWYQQKPGKAPKLLIYAASSLQSGVPSRFSGSGSGTDFTLTISSLQPEDFATYYCQQSYTLAFGQGTKVDIKTTTPAPRPPTPAPTIASQPLSLRPEACRPAAGGAVHTRGLDFACDIYIWAPLAGTCGVLLLSLVITLYCKRGRKKLLYIFKQPFMRPVQTTQEEDGCSCRFPEEEEGGCELRVKFSRSADAPAYKQGQNQLYNELNLGRREEYDVLDKRRGRDPEMGGKPRRKNPQEGLYNELQKDKMAEAYSEIGMKGERRRGKGHDGLYQGLSTATKDTYDALHMQALPPR
B2: BCMA-12 CAR (139111) (protein)
chain: EVQLLESGGGLVQPGGSLRLSCAVSGFALSNHGMSWVRRAPGKGLEWVSGIVYSGSTYYAASVKGRFTISRDNSRNTLYLQMNSLRPEDTAIYYCSAHGGESDVWGQGTTVTVSSASGGGGSGGRASGGGGSDIVMTQTPLSLSVTPGQPASISCKSSQSLLRNDGKTPLYWYLQKAGQPPQLLIYEVSNRFSGVPDRFSGSGSGTDFTLKISRVEAEDVGAYYCMQNIQFPSFGGGTKLEIKTTTPAPRPPTPAPTIASQPLSLRPEACRPAAGGAVHTRGLDFACDIYIWAPLAGTCGVLLLSLVITLYCKRGRKKLLYIFKQPFMRPVQTTQEEDGCSCRFPEEEEGGCELRVKFSRSADAPAYKQGQNQLYNELNLGRREEYDVLDKRRGRDPEMGGKPRRKNPQEGLYNELQKDKMAEAYSEIGMKGERRRGKGHDGLYQGLSTATKDTYDALHMQALPPR
B3: BCMA-15 CAR (139114) (protein)
chain: EVQLVESGGGLVQPGGSLRLSCAVSGFALSNHGMSWVRRAPGKGLEWVSGIVYSGSTYYAASVKGRFTISRDNSRNTLYLQMNSLRPEDTAIYYCSAHGGESDVWGQGTTVTVSSASGGGGSGGRASGGGGSEIVLTQSPGTLSLSPGERATLSCRASQSIGSSSLAWYQQKPGQAPRLLMYGASSRASGIPDRFSGSGSGTDFTLTISRLEPEDFAVYYCQQYAGSPPFTFGQGTKVEIKTTTPAPRPPTPAPTIASQPLSLRPEACRPAAGGAVHTRGLDFACDIYIWAPLAGTCGVLLLSLVITLYCKRGRKKLLYIFKQPFMRPVQTTQEEDGCSCRFPEEEEGGCELRVKFSRSADAPAYKQGQNQLYNELNLGRREEYDVLDKRRGRDPEMGGKPRRKNPQEGLYNELQKDKMAEAYSEIGMKGERRRGKGHDGLYQGLSTATKDTYDALHMQALPPR
B4: BCMA-13 CAR (139112) (protein)
chain: QVQLVESGGGLVQPGGSLRLSCAVSGFALSNHGMSWVRRAPGKGLEWVSGIVYSGSTYYAASVKGRFTISRDNSRNTLYLQMNSLRPEDTAIYYCSAHGGESDVWGQGTTVTVSSASGGGGSGGRASGGGGSDIRLTQSPSPLSASVGDRVTITCQASEDINKFLNWYHQTPGKAPKLLIYDASTLQTGVPSRFSGSGSGTDFTLTINSLQPEDIGTYYCQQYESLPLTFGGGTKVEIKTTTPAPRPPTPAPTIASQPLSLRPEACRPAAGGAVHTRGLDFACDIYIWAPLAGTCGVLLLSLVITLYCKRGRKKLLYIFKQPFMRPVQTTQEEDGCSCRFPEEEEGGCELRVKFSRSADAPAYKQGQNQLYNELNLGRREEYDVLDKRRGRDPEMGGKPRRKNPQEGLYNELQKDKMAEAYSEIGMKGERRRGKGHDGLYQGLSTATKDTYDALHMQALPPR
B5: BCMA-8 CAR (139107) (protein)
chain: EVQLVETGGGVVQPGGSLRLSCAVSGFALSNHGMSWVRRAPGKGLEWVSGIVYSGSTYYAASVKGRFTISRDNSRNTLYLQMNSLRPEDTAIYYCSAHGGESDVWGQGTTVTVSSASGGGGSGGRASGGGGSEIVLTQSPGTLSLSPGERATLSCRASQSVGSTNLAWYQQKPGQAPRLLIYDASNRATGIPDRFSGGGSGTDFTLTISRLEPEDFAVYYCQQYGSSPPWTFGQGTKVEIKTTTPAPRPPTPAPTIASQPLSLRPEACRPAAGGAVHTRGLDFACDIYIWAPLAGTCGVLLLSLVITLYCKRGRKKLLYIFKQPFMRPVQTTQEEDGCSCRFPEEEEGGCELRVKFSRSADAPAYKQGQNQLYNELNLGRREEYDVLDKRRGRDPEMGGKPRRKNPQEGLYNELQKDKMAEAYSEIGMKGERRRGKGHDGLYQGLSTATKDTYDALHMQALPPR
B6: BCMA-14 CAR (139113) (protein)
chain: EVQLVETGGGLVQPGGSLRLSCAVSGFALSNHGMSWVRRAPGKGLEWVSGIVYSGSTYYAASVKGRFTISRDNSRNTLYLQMNSLRPEDTAIYYCSAHGGESDVWGQGTTVTVSSASGGGGSGGRASGGGGSETTLTQSPATLSVSPGERATLSCRASQSVGSNLAWYQQKPGQGPRLLIYGASTRATGIPARFSGSGSGTEFTLTISSLQPEDFAVYYCQQYNDWLPVTFGQGTKVEIKTTTPAPRPPTPAPTIASQPLSLRPEACRPAAGGAVHTRGLDFACDIYIWAPLAGTCGVLLLSLVITLYCKRGRKKLLYIFKQPFMRPVQTTQEEDGCSCRFPEEEEGGCELRVKFSRSADAPAYKQGQNQLYNELNLGRREEYDVLDKRRGRDPEMGGKPRRKNPQEGLYNELQKDKMAEAYSEIGMKGERRRGKGHDGLYQGLSTATKDTYDALHMQALPPR

Sequence of B-cell maturation antigen (BCMA) expressed on cells (human), Q02223 (Q02223 whole entry): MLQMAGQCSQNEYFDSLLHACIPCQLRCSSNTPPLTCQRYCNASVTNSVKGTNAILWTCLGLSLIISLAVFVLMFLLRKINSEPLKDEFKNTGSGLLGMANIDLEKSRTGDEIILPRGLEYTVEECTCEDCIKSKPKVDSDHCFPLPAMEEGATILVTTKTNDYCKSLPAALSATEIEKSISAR

This assay has as its target B-cell maturation antigen (BCMA) expressed on cells (human), Q02223. Put plainly: cell-based or functional assay.
On to B1, for which the Cell killing EC50; KMS11-luc came to 0.68 not printed; the JNL binding assay, ratio to K562; K562-BCMA is 1.59; the JNL binding assay, ratio to K562; NCI-H929 is 1.99; the JNL binding assay, ratio to K562; RPMI 8226 turned out to be 1.54. In addition, the Proliferation, CD3 ratio to no target; K562-BCMA is 1.51; the Proliferation, CD3 ratio to no target; KMS11-luc stood at 1.66; the Proliferation, CD3 ratio to no target; NCI-H929 is 4.63; the Proliferation, CD3 ratio to no target; RPMI 8226 came out at 2.5. Besides, the Proliferation, CD4 ratio to no target; K562-BCMA stood at 1.59; the Proliferation, CD4 ratio to no target; KMS11-luc came to 1.49; the Proliferation, CD4 ratio to no target; NCI-H929 stood at 4.45; the Proliferation, CD4 ratio to no target; RPMI 8226 worked out at 2.24. Further, the Proliferation, CD8 ratio to no target; K562-BCMA was 1.43; the Proliferation, CD8 ratio to no target; KMS11-luc is 1.83; the Proliferation, CD8 ratio to no target; NCI-H929 is 4.79; the Proliferation, CD8 ratio to no target; RPMI 8226 stood at 2.76.

As to B2, the Cell killing EC50; KMS11-luc turned out to be 0.22 not printed; the JNL binding assay, ratio to K562; K562-BCMA amounted to 3.17; the JNL binding assay, ratio to K562; NCI-H929 came out at 2.78; the JNL binding assay, ratio to K562; RPMI 8226 was 3.36. Moreover, the Proliferation, CD3 ratio to no target; K562-BCMA was 2.9; the Proliferation, CD3 ratio to no target; KMS11-luc was found to be 2.76; the Proliferation, CD3 ratio to no target; NCI-H929 is 2.98; the Proliferation, CD3 ratio to no target; RPMI 8226 amounted to 3.27. Moreover, the Proliferation, CD4 ratio to no target; K562-BCMA worked out at 3.42; the Proliferation, CD4 ratio to no target; KMS11-luc is 2.94; the Proliferation, CD4 ratio to no target; NCI-H929 amounted to 3.41; the Proliferation, CD4 ratio to no target; RPMI 8226 amounted to 3.66. Besides, the Proliferation, CD8 ratio to no target; K562-BCMA was 1.51; the Proliferation, CD8 ratio to no target; KMS11-luc stood at 2.11; the Proliferation, CD8 ratio to no target; NCI-H929 worked out at 1.76; the Proliferation, CD8 ratio to no target; RPMI 8226 came to 2.12.

For B3, the Cell killing EC50; KMS11-luc was 0.11 not printed; the JNL binding assay, ratio to K562; K562-BCMA was found to be 2.91; the JNL binding assay, ratio to K562; NCI-H929 amounted to 2.79; the JNL binding assay, ratio to K562; RPMI 8226 was found to be 3.49. The Proliferation, CD3 ratio to no target; K562-BCMA worked out at 3.94; the Proliferation, CD3 ratio to no target; KMS11-luc came to 3.51; the Proliferation, CD3 ratio to no target; NCI-H929 was 4.08; the Proliferation, CD3 ratio to no target; RPMI 8226 is 3.73. The Proliferation, CD4 ratio to no target; K562-BCMA was found to be 4.87; the Proliferation, CD4 ratio to no target; KMS11-luc is 3.82; the Proliferation, CD4 ratio to no target; NCI-H929 was 4.82; the Proliferation, CD4 ratio to no target; RPMI 8226 came out at 4.24. Besides, the Proliferation, CD8 ratio to no target; K562-BCMA stood at 1.89; the Proliferation, CD8 ratio to no target; KMS11-luc turned out to be 2.73; the Proliferation, CD8 ratio to no target; NCI-H929 stood at 2.42; the Proliferation, CD8 ratio to no target; RPMI 8226 amounted to 2.51.

For B4, the Cell killing EC50; KMS11-luc is 0.11 not printed; the JNL binding assay, ratio to K562; K562-BCMA was 3.74; the JNL binding assay, ratio to K562; NCI-H929 is 2.68; the JNL binding assay, ratio to K562; RPMI 8226 amounted to 3.66. Moreover, the Proliferation, CD3 ratio to no target; K562-BCMA stood at 3.47; the Proliferation, CD3 ratio to no target; KMS11-luc was found to be 3.2; the Proliferation, CD3 ratio to no target; NCI-H929 is 3.46; the Proliferation, CD3 ratio to no target; RPMI 8226 came to 3.48. Besides, the Proliferation, CD4 ratio to no target; K562-BCMA amounted to 5.4; the Proliferation, CD4 ratio to no target; KMS11-luc was 3.84; the Proliferation, CD4 ratio to no target; NCI-H929 was determined as 5.05; the Proliferation, CD4 ratio to no target; RPMI 8226 amounted to 4.44. For the same molecule, the Proliferation, CD8 ratio to no target; K562-BCMA amounted to 2.34; the Proliferation, CD8 ratio to no target; KMS11-luc turned out to be 2.79; the Proliferation, CD8 ratio to no target; NCI-H929 worked out at 2.53; the Proliferation, CD8 ratio to no target; RPMI 8226 came to 2.86.

As to B5, the Cell killing EC50; KMS11-luc stood at 0.14 not printed; the JNL binding assay, ratio to K562; K562-BCMA stood at 3.17; the JNL binding assay, ratio to K562; NCI-H929 turned out to be 2.67; the JNL binding assay, ratio to K562; RPMI 8226 came out at 3.87. Further, the Proliferation, CD3 ratio to no target; K562-BCMA is 2.55; the Proliferation, CD3 ratio to no target; KMS11-luc turned out to be 2.46; the Proliferation, CD3 ratio to no target; NCI-H929 was 2.17; the Proliferation, CD3 ratio to no target; RPMI 8226 stood at 2.56. The Proliferation, CD4 ratio to no target; K562-BCMA turned out to be 3.59; the Proliferation, CD4 ratio to no target; KMS11-luc was determined as 3.11; the Proliferation, CD4 ratio to no target; NCI-H929 was found to be 2.98; the Proliferation, CD4 ratio to no target; RPMI 8226 came out at 3.33. Further, the Proliferation, CD8 ratio to no target; K562-BCMA is 1.59; the Proliferation, CD8 ratio to no target; KMS11-luc turned out to be 1.83; the Proliferation, CD8 ratio to no target; NCI-H929 was 1.41; the Proliferation, CD8 ratio to no target; RPMI 8226 amounted to 1.81.

With B6, the Cell killing EC50; KMS11-luc worked out at 0.12 not printed; the JNL binding assay, ratio to K562; K562-BCMA was 2.81; the JNL binding assay, ratio to K562; NCI-H929 was determined as 2.65; the JNL binding assay, ratio to K562; RPMI 8226 amounted to 3.31. In addition, the Proliferation, CD3 ratio to no target; K562-BCMA was determined as 4.12; the Proliferation, CD3 ratio to no target; KMS11-luc was 3.42; the Proliferation, CD3 ratio to no target; NCI-H929 came to 3.86; the Proliferation, CD3 ratio to no target; RPMI 8226 came to 3.93. In addition, the Proliferation, CD4 ratio to no target; K562-BCMA is 5.73; the Proliferation, CD4 ratio to no target; KMS11-luc was found to be 3.97; the Proliferation, CD4 ratio to no target; NCI-H929 was determined as 5.07; the Proliferation, CD4 ratio to no target; RPMI 8226 was 4.84. The Proliferation, CD8 ratio to no target; K562-BCMA was found to be 2.65; the Proliferation, CD8 ratio to no target; KMS11-luc turned out to be 2.83; the Proliferation, CD8 ratio to no target; NCI-H929 is 2.73; the Proliferation, CD8 ratio to no target; RPMI 8226 came to 3.03.
